Measurements from US20220380471A1 (US Dept. of Health and Human Services, published 2022).
Substitutions are numbered along the chain they refer to. One block for each binder: values may come before it.

Legend:
[1] = biological target: T1, monkey B7H3-His (monkey); test: phage ELISA, cross-species
T1 chain: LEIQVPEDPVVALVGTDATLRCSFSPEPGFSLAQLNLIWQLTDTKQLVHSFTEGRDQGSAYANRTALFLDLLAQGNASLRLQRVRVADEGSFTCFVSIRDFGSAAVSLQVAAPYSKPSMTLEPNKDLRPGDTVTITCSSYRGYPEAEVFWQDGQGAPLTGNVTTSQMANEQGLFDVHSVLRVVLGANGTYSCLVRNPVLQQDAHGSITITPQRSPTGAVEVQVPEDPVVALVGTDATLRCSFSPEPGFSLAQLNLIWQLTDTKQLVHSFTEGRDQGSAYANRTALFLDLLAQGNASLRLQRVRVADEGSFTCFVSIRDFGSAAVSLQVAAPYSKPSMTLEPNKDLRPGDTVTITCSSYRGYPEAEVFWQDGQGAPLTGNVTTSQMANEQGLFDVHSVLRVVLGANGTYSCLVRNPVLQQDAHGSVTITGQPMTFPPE
Outline: (§1)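 Camel VHH phage from libraries of eight individual camels went through 3 rounds of panning on recombinant B7H3-Fc protein. The recorded ELISA signal reflects binding of the selected phage to immobilised human or other-species B7H3, or to control proteins, in a phage ELISA.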

[2] = biological target: T1, monkey B7H3-His; test: ELISA, purified VHH
Outline: (§2)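 Camel VHH nanobodies were isolated by phage panning on recombinant B7H3-Fc. After purification, their binding to immobilised B7H3 fusion proteins and non-B7H3 recombinant proteins was read out by ELISA and recorded as signal.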

[3] = biological target: T2, rat B7H3-His (rat, UniProt Q7TPB4 29-244, limits assumed); test: phage ELISA, cross-species
T2 construct: not shown: His tag
T2 sequence (looked up): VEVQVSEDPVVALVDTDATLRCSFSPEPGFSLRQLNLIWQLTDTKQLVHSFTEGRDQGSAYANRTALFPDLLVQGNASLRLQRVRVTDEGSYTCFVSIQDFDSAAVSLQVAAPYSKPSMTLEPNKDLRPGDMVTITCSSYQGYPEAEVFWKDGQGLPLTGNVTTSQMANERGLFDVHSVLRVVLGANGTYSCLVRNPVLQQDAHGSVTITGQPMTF
Outline: as §1

[4] = biological target: T3, human B7H3 (human, UniProt Q5ZPR3 29-466, limits assumed); test: phage ELISA, cross-species
T3 construct: also called human B7H3 protein
T3 sequence (looked up): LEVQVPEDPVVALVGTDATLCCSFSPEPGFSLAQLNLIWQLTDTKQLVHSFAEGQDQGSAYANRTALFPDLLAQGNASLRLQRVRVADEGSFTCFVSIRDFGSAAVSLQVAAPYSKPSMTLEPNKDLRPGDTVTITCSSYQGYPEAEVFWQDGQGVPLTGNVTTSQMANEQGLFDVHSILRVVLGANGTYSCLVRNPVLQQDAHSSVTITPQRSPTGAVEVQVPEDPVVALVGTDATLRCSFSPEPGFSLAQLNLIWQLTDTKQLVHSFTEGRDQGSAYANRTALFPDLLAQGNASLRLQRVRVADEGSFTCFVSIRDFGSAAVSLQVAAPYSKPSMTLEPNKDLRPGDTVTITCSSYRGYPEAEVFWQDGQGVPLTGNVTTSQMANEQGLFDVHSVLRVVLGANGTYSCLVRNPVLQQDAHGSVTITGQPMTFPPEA
Outline: as §1

[5] = biological target: Non-relevant antigen; test: phage ELISA, cross-species
Outline: as §1

[6] = biological target: T4, mouse B7H3-His (mouse, UniProt Q8VE98 29-244, limits assumed); test: phage ELISA, cross-species
T4 construct: also called recombinant mouse B7H3-His protein; not shown: His tag
T4 sequence (looked up): T2 sequence (looked up) with R33A, A62S, D131N, L156V, M214L
Outline: as §1

[7] = biological target: T5, recombinant human B7H3-Fc protein (human, UniProt Q5ZPR3 29-466, limits assumed); test: ELISA, purified VHH
T5 construct: 154 kDa non-reduced, 77 kDa reduced; also called hB7H3-Fc; not shown: Fc part
T5 sequence (looked up): T3 sequence (looked up)
Outline: as §2

[8] = biological target: T2, rat B7H3-His; test: ELISA, purified VHH
Outline: as §2

[9] = biological target: Non-relevant antigen; test: ELISA, purified VHH
Outline: as §2

[10] = biological target: T6, hB7H3-His (human, UniProt Q5ZPR3 29-461, limits assumed); test: ELISA, purified VHH
T6 construct: not shown: His tag
T6 sequence (looked up): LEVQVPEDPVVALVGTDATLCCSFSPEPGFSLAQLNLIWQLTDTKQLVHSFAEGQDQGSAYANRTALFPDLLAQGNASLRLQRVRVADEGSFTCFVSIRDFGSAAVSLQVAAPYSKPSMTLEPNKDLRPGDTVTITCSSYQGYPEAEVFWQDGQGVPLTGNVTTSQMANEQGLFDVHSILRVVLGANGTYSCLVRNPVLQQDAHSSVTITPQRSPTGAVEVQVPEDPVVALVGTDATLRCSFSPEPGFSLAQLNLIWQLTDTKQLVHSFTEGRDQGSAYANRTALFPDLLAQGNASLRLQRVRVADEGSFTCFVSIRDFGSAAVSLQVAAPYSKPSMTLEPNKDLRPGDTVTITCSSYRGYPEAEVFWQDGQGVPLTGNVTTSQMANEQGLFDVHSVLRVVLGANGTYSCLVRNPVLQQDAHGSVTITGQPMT
Outline: as §2

[11] = biological target: T5, recombinant human B7H3-Fc protein; test: phage ELISA
Outline: as §1

[12] = biological target: IgG control; test: phage ELISA
Outline: as §1

[13] = biological target: PD-L1; test: ELISA, purified VHH, cross-reaction
Sequence of PD-L1 (Q9NZQ7 whole entry): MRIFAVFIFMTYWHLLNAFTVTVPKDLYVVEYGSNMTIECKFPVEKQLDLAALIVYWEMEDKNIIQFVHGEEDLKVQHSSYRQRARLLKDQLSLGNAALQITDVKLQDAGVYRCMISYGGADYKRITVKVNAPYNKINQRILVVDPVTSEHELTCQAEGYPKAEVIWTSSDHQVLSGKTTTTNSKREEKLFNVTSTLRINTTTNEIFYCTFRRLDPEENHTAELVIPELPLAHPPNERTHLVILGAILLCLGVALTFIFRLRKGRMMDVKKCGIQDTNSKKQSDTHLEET

[14] = biological target: T7, B7H3-hFc (human, UniProt Q5ZPR3 29-456); test: ELISA, B7H3-hFc coated, VH-His-FLAG detected with anti-FLAG-HRP
T7 construct: also called recombinant B7H3-hFc; B7H3 ECD fused with human IgG1 Fc; not shown: human IgG1 Fc
T7 sequence: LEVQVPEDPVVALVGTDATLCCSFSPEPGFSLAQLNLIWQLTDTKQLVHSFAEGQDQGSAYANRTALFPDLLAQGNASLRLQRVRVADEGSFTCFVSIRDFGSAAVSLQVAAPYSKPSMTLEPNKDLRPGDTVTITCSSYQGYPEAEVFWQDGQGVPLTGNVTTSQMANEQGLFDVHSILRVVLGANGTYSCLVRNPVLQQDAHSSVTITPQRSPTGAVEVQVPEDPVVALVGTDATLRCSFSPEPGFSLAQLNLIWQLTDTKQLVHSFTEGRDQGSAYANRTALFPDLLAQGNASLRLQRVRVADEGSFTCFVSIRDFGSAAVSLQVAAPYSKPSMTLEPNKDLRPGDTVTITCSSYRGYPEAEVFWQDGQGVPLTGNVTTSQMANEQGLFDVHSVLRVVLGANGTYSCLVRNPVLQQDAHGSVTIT
Text: FIGS. 4A-4C: Binding properties of the B7H3 binders. (FIG. 4A) SDS-PAGE analysis of the purified A1 and B1 binders (VH-His-FLAG fusion) from E. coli. Two micrograms of purified B7H3-hFc, non-reduced (Non.) or reduced (Red.) by β-mercaptoethanol, were separated on an 8% SDS-PAGE gel. Protein bands were visualized by Coomassie blue R-250 staining. (FIG. 4B) Protein binding affinity measurement by ELISA. Five micrograms of B7H3-hFc were coated on the ELISA plate, and different concentrations of domain antibodies were incubated with the plate, and binding was detected by HRP conjugated anti-FLAG mouse monoclonal antibody M2. The binding curves were plotted using the software GraphPad Prism and the calculated EC50 values were determined by the software's algorithm of hyperbola one site binding. (FIG. 4C) Cell binding determination by flow cytometry. Ten microgram per mL domain antibody was co-incubated with one million cells. Antibody binding was visualized by APC conjugated anti-FLAG monoclonal antibody. The curves labelled “1” represent cells stained with secondary antibody only; the curves labelled “2” represent cells stained with A1 or B1 domain antibody.
The VH coding sequences of binders A1 and B1 were fused with His-FLAG tag at their C-termini and cloned into an E. coli expression vector. […] The purified yield was 2 mg/L (A1) and 10 mg/L fermentation (B1) respectively. […]

[15] = biological target: T8, B7H3 (CD276) on MC38-CD276+ cells; test: flow cytometry on MC38-CD276+ cells, VHH at 2 ug/ml
T8 construct: whole, on cells; MC38-CD276KO cells served as the negative control; also called MC38-B7H3+
T8 sequence (Q5ZPR3 1-534, species assumed, looked up): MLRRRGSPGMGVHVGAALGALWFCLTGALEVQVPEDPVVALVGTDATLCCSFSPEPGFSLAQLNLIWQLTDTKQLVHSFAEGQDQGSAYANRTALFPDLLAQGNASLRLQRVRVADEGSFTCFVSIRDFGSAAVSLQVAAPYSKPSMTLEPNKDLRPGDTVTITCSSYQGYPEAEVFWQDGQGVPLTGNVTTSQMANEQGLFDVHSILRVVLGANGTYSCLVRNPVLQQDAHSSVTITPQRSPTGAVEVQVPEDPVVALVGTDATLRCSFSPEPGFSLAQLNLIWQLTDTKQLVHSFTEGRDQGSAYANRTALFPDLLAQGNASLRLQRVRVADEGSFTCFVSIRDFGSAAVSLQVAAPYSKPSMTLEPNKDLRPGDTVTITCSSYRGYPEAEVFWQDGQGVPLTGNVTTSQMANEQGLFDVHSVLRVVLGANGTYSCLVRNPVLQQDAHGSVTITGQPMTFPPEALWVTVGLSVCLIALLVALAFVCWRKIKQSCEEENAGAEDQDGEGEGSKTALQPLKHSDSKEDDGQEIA

[16] = biological target: T8, B7H3 (CD276) on MC38-CD276+ cells; test: flow cytometry on MC38-CD276+ cells, VHH at 50 ug/ml
[17] = biological target: T8, B7H3 (CD276) on MC38-CD276+ cells; test: flow cytometry on MC38-CD276+ cells, VHH at 0.5 ug/ml
[18] = biological target: T8, B7H3 (CD276) on MC38-CD276+ cells; test: flow cytometry on MC38-CD276+ cells, VHH at 10 ug/ml

ELISA signal [1]: 2.22
ELISA signal [2]: 0.0979
B1: RWH5 (VHH)
VHH: AVQLVESGGGSVQAGGSLRLSCKASGYCMGWFRQAPGKEREGVAALNTEGGVTYYADSVKGRFSISRDNTNLYLQMNSLKPEDTAIYYCAADDRPTRCAVGSLYLPYTYRGQGTQVTVSS
notes: Camel VHH; tag not described; also called RWHS [sic]; camel antibody RWH5

ELISA signal [1]: 0.0706
ELISA signal [3]: 0.0951
ELISA signal [4]: 2.03
ELISA signal [5]: 0.0608
ELISA signal [6]: 0.0738
ELISA signal [2]: 1.3
ELISA signal [7]: 2.59
ELISA signal [8]: 0.134
ELISA signal [9]: 0.131
ELISA signal [10]: 2.65
ELISA signal [11]: 2.75
ELISA signal [12]: 0.136
ELISA signal [13]: 0.0753
B2: RWH1 (VHH)
VHH: AVQLVESGGGSVQAGGSLRLSCAASGMNLDNYVRGWLRQAPGSKCEFVSIIRRDGTTDYGDSVKGRFTISRDNAKNTVYLQMNSLKPDDTAVYYCAAIVVPRAAEYACDGLPYRGQGTQVTVSS
notes: Camel VHH; tag not described; also called camel antibody RWH1

EC50 [14]: 403 nM
B3: RFA1 (other)
VH: QSLEESGGGLVTPGGTLTLTCTVSGFSLSSYGMSWVRQAPGKGLEWIGSMANNGDPYYASWAKGRFTISKTSTTVDLKITSPTTEDTATYFCVRAPWGSHSMWGPGTLVTVSSGGGGSGGGGSGGGGSDPVLTQTAGGGTNVEIK
notes: Rabbit VH single-domain antibody expressed in E. coli as VH-His-FLAG fusion; also called rabbit antibody RFA1; Al [sic]; not shown: 6x His tag and FLAG tag at the C-terminus

ELISA signal [1]: 0.228
ELISA signal [3]: 0.738
ELISA signal [4]: 2.14
ELISA signal [5]: 0.0654
ELISA signal [6]: 0.0759
ELISA signal [7]: 2.34
ELISA signal [11]: 2.42
ELISA signal [12]: 0.0888
ELISA signal [13]: 0.0454
B4: RWC3 (VHH)
VHH: QVQLVESGGGLVQPGGSLSVSCAASGFTFSVYWFYWVRQAPRQGLEWVSTIASNGSTYYSDSVKGRFTISRDNAKNTVYLQMNSLKPEDTAVYYCVSDPDYYSDYERAYKFWAQGTQVTVSS
notes: Camel VHH; tag not described; also called camel antibody RWC3

ELISA signal [1]: 0.237
ELISA signal [3]: 0.778
ELISA signal [4]: 2.21
ELISA signal [5]: 0.113
ELISA signal [6]: 0.0782
ELISA signal [7]: 0.499
ELISA signal [11]: 2.43
ELISA signal [12]: 0.0788
ELISA signal [13]: 0.0438
B5: RWD9 (VHH)
VHH: B4 VHH with Q1E
notes: Camel VHH; tag not described; also called camel antibody RWD9

Positive rates [15]: 1.44%
Positive rates [16]: 88.9%
ELISA signal [1]: 0.267
ELISA signal [3]: 0.871
ELISA signal [4]: 2.13
ELISA signal [5]: 0.0583
ELISA signal [6]: 0.0819
ELISA signal [7]: 2.37
ELISA signal [11]: 2.5
ELISA signal [12]: 0.0685
ELISA signal [13]: 0.0471
Positive rates [17]: 0.19%
Positive rates [18]: 44.9%
B6: RWD5 (VHH)
VHH: B4 VHH with Q1A, A108E
notes: Camel VHH; tag not described; also called RWDS [sic]; camel antibody RWD5
